Data: IntAct's records for PubMed 22512862

B1: Phosphocarrier protein HPr (Bacillus subtilis), P08877 (parent)
chain: MAQKTFKVTADSGIHARPATVLVQTASKYDADVNLEYNGKTVNLKSIMGVMSLGIAKGAEITISASGADENDALNALEETMKSEGLGE
partner: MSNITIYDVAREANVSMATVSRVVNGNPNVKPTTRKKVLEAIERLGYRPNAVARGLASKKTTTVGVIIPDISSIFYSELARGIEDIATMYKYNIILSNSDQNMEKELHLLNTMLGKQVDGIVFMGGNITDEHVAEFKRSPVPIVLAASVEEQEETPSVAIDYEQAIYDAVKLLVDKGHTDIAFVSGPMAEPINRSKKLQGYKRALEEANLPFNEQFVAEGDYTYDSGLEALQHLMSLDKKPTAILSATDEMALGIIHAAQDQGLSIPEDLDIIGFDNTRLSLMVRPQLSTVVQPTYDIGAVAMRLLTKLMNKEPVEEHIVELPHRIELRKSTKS

Variants of: B1
Conditions: with ccpa_bacsu ccpA

| effect of a mutation on the interaction | Variant |
| --- | --- |
| disrupting interaction | S46A |
